The record followed here is the nanobody polyreactivity screen of Harvey et al. (2022).

This data set can be described thus: yeast display, Sf9 membrane polyspecificity reagent, FACS + sequencing; frameworks hold sequencing errors. Put shortly: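 Galactose-induced (36–48 hours) yeast carrying a synthetic nanobody display library were exposed to 10% biotinylated, detergent-solubilized Sf9 membrane reagent at 4 °C for 1 hour. FACS followed streptavidin microbead enrichment, using low and high (top ~1%) gates for expression (anti-HA) and reagent binding (streptavidin). Colony PCR, MiSeq 2 × 250 sequencing and CDR-length filtering followed. Labels for polyreactivity reflect the gate of origin.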
“QVQLVESGGGLVQAGGSLRLSCAASGIIVPNAMGWYRQAPGKERELVAVITSGGSTYYADSVKGRFTISRDNAKNTVSLQMNSLKPEDTAVYYCNKDYAAIDRYDSWGQGTQVTVSS”: the “polyreactivity (PSR sort gate)” value is listed as “low polyreactivity”.
As to “QVQLVESGGGLVQAGGSLRLSCAASGIIVPNAMGWYRQAPGKERELVAVITSGGSTYYADSVKGRFTISRDNAKNTVYLQMNSLKPEDTAVYYCNKDYAAIDRYDSWGQGTQVTVSS”, the “polyreactivity (PSR sort gate)” value is recorded as “low polyreactivity”.
Regarding “QVQLVESGGGLVQAGGSLRLSCAASGIIWYYAMGWYRQAPGKERELVAAISWSSGSTYYADSVKGRFTISRDNAKNTVYLQMNSLKPEDSAVYYCAADVYLVKYDYWGQGTQVTVSS”, the “polyreactivity (PSR sort gate)” value was “high polyreactivity”.
For the sequence “QVQLVESGGGLVQAGGSLRLSCAASGINFAYNAMGWYRQAPGKERELVATITDSGGSTSYADSVKGRFTISRDNAKNTVYLQMNSLKPEDTAVYYCAVLPVYWYWRNYVYLSGYDYWGQGTQVTVSS”, the “polyreactivity (PSR sort gate)” value is “low polyreactivity”.
Regarding “QVQLVESGGGLVQAGGSLRLSCAASGINFDDNAMGWYRQAPGKERELVATISDGGRTYYADSVKGRFTISRDNAKNTVYLQMNSQKPEDTAVYYCADRLWWPYSPAWAKMDYGGQGTQVTVSS”, the “polyreactivity (PSR sort gate)” value was “low polyreactivity”.
For “QVQLVESGGGLVQAGGSLRLSCAASGINFDTNAIGWYRQAPGKERELVATITQRGGTTYYADSVKGRFTISRDNAKNTVYLQMNSLKPEDTAVYYCNAGPVGLPYDSWGQGTQVTVSS” the value was “low polyreactivity”; for “QVQLVESGGGLVQAGGSLRLSCAASGINFFGKYAMGWYRQAPGKERELVAAISWSGGRTYYADSVKWRFTISRDNAKNTVYLQMNSLKPEDTAVYYCAVYPRDAERYGYCGQGTQVTVSS”, “high polyreactivity”.
For “QVQLVESGGGLVQAGGSLRLSCAASGINFKGNAMGWYRQAPGKERELVATISSGGTTNYADSVKGRFTISRDNAKNTVYLQMNSLKPEDTAVYYCAKRGYYRSRRYDYWGQGTQVTVSS” the value was “high polyreactivity”; for “QVQLVESGGGLVQAGGSLRLSCAASGINFKRYAMGWYRQAPGKESELVATINRDGRTSYADSVKGRFTISRDNAKNTVYLQMNSLKQEDTAVYYFNKRGTYATPTPGNLFDYWGQGTLVTVSS”, “low polyreactivity”.
For “QVQLVESGGGLVQAGGSLRLSCAASGINFSPYAMGWYRQAPGKERELVAAISYSGGSTYYADSVKGRFTISRDNAKNTVYLQMNSLKPEDTAVYYCAVVYSYYLAVLGYWDYDYWGQGTQVTVSS” the value was “low polyreactivity”.
Consider “QVQLVESGGGLVQAGGSLRLSCAASGINFVGYAMGWYRQAPGKERELVAAISTSSRTYYADSVKGRFTISRDNAKITVYLHMNSLKPDDTAVYYCNARGTRWYYRHDYWGQGTQVTVSS”, for which the “polyreactivity (PSR sort gate)” value was “high polyreactivity”.
For “QVQLVESGGGLVQAGGSLRLSCAASGINFYYNAMGWYRQAPGKERELVATISWSDTSTYYADSVKGRFTISRDNAKNTVFLQMNSLKPEDTAGYYCATDGRETWLPEYYWGQGTQVTVSS”, the “polyreactivity (PSR sort gate)” value is on record as “low polyreactivity”.
Consider “QVQLVESGGGLVQAGGSLRLSCAASGIPRNTMGWYRQAPGKERELVASISTSGGSTYYADSVKGRFTISLDNAKKTVYLQMNSLKPEDTAVYYCAKKAYASRYFIYDYWGQGTQVTVSS”, for which the “polyreactivity (PSR sort gate)” value is reported as “low polyreactivity”.
For “QVQLVESGGGLVQAGGSLRLSCAASGISFSQYARGWYRQAPGKERELVAAISGSGGDTYYADSVKGRFTISRDNAKNTVYLQMNSLKPEDTAVYYCNADYESVYYEDYDYWGQGTQVTVSS” the value was “low polyreactivity”; for “QVQLVESGGGLVQAGGSLRLSCAASGISYTSYAMGWYRQAPGKERELVAAISSSGGSTYYADSVKGRFTISRDNAKNTVYLQMNSLKPEDTAVYYCIARPRSRSPRVEYDYWGQGTQVTVSS”, “high polyreactivity”; for “QVQLVESGGGLVQAGGSLRLSCAASGITFAENAMGWFRQAPGKERELVAAISGSGVDTYYADSVKGRFTISRDNAKNPVYLQMNSVKPEDTAVYYSNAVYYRSSYPSGRYGMDYWGQGTQVTVSS”, “high polyreactivity”.
